Laboratory results taken from the supplement of paper PMC10724198.
± gives the standard deviation of the averaged measurements.

What was measured:
[1] = tested on: Saccharomyces cerevisiae; assay: protein stability index of tFT-peptide fusion (C-terminal peptide) (PSI (0-1 scale)); higher = more stable (slower turnover); settings: genetic background: wild type; temperature: 30 C
[2] = tested on: Saccharomyces cerevisiae; assay: as above
Experimental: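 MPS profiling in S. cerevisiae of the tFT-X12 degron library: putative degron peptides plus stable controls, 12 aa, fused to the C-terminus of a sfGFP-mCherry timer. Cells are FACS-sorted into 8 mCherry/sfGFP bins and deep-sequenced. PSI runs from 0 (unstable) to 1 (stable). Backgrounds are wild type, das1Δ and doa10Δ at 30 °C, and wild type, das1Δ, cdc34-1 and cdc53-1 at 37 °C; 2-3 technical replicates each.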

[3] = genetic background: cdc34-1, temperature: 37 C
[4] = genetic background: cdc53-1, temperature: 37 C
[5] = genetic background: das1 deletion, temperature: 30 C
[6] = genetic background: das1 deletion, temperature: 37 C
[7] = genetic background: doa10 deletion, temperature: 30 C
[8] = genetic background: wild type, temperature: 30 C
[9] = genetic background: wild type, temperature: 37 C
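Also: PSI is a weighted mean of sequencing reads over stability bins, variants kept only with over 10 reads, mCherry proximal and sfGFP distal, peptide attached via GGGS linker.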

Row | Sequence | protein stability index [1] | protein stability index [2, 3] | protein stability index [2, 4] | protein stability index [2, 5] | protein stability index [2, 6] | protein stability index [2, 7] | protein stability index [2, 8] | protein stability index [2, 9]
1 | VWWTLWRVHMLG | 0.243 ± 0.024 | 0.583 ± 0.028 | 0.644 ± 0.0072 | 0.592 ± 0.018 | 0.7151 ± 0.0031 | 0.106 ± 0.03 | 0.142 ± 0.021 | 0.218 ± 0.026
2 | VYCLFLPLGVAF | 0.27 ± 0.027 | 0.115 ± 0.038 | 0.175 ± 0.072 | 0.184 ± 0.02 | 0.248 ± 0.0082 | 0.146 ± 0.016 | 0.171 ± 0.022 | 0.207 ± 0.026
3 | VYCLVLFFSQWC | 0.452 ± 0.011 | 0.42 ± 0.03 | 0.484 ± 0.011 | 0.365 ± 0.025 | 0.543 ± 0.016 | 0.353 ± 0.013 | 0.351 ± 0.016 | 0.509 ± 0.013
4 | VYFPRLLVRVSW | 0.407 ± 0.095 | 0.4489 ± 0.0015 | 0.472 ± 0.017 | 0.392 ± 0.029 | 0.508 ± 0.0082 | 0.436 ± 0.0082 | 0.377 ± 0.043 | 0.4787 ± 0.00097
5 | WAIMGLIIFCLF | 0.329 ± 0.022 | 0.309 ± 0.0083 | 0.363 ± 0.031 | 0.3 ± 0.035 | 0.438 ± 0.015 | 0.222 ± 0.0086 | 0.244 ± 0.022 | 0.353 ± 0.012
6 | WGEAGRPAGRGA | 0.688 ± 0.039 | 0.703 ± 0.032 | 0.758 ± 0.026 | 0.631 ± 0.007 | 0.745 ± 0.018 | 0.644 ± 0.017 | 0.6506 ± 0.004 | 0.73024 ± 1.3e-05
7 | WGFLSVVCLSGV | 0.458 ± 0.038 | 0.501 ± 0.029 | 0.5235 ± 0.0052 | 0.4 ± 0.024 | 0.533 ± 0.015 | 0.384 ± 0.035 | 0.398 ± 0.013 | 0.522 ± 0.0023
8 | WGLGWRGALVAV | 0.385 ± 0.062 | 0.417 ± 0.0089 | 0.42 ± 0.017 | 0.321 ± 0.033 | 0.4845 ± 0.0034 | 0.269 ± 0.0084 | 0.324 ± 0.027 | 0.454 ± 0.0095
9 | WGLPVGVESSGG | 0.732 ± 0.03 | 0.712 ± 0.03 | 0.761 ± 0.021 | 0.648 ± 0.028 | 0.761 ± 0.0095 | 0.64 ± 0.012 | 0.661 ± 0.032 | 0.733 ± 0.015
10 | WGRFFWGCGVWV | 0.55 ± 0.074 | 0.631 ± 0.07 | 0.7128 ± 0.0035 | 0.6 ± 0.016 | 0.725 ± 0.0095 | 0.438 ± 0.016 | 0.463 ± 0.032 | 0.644 ± 0.031
11 | WGRGYRWRIWDV | 0.546 ± 0.093 | 0.708 ± 0.068 | 0.772 ± 0.018 | 0.657 ± 0.015 | 0.7901 ± 0.0042 | 0.396 ± 0.01 | 0.433 ± 0.0092 | 0.656 ± 0.034
12 | WIGCTVKIASLY | 0.437 ± 0.036 | 0.619 ± 0.015 | 0.67 ± 0.018 | 0.558 ± 0.03 | 0.693 ± 0.012 | 0.219 ± 0.021 | 0.261 ± 0.019 | 0.49113 ± 0.00019
13 | WLCLFRFLGVAY | 0.345 ± 0.018 | 0.18 ± 0.024 | 0.245 ± 0.04 | 0.218 ± 0.033 | 0.3 ± 0.0097 | 0.185 ± 0.005 | 0.216 ± 0.012 | 0.2749 ± 0.0024
14 | WLMVGVDWRFVG | 0.138 ± 0.046 | 0.436 ± 0.0056 | 0.6254 ± 0.0043 | 0.57 ± 0.024 | 0.7086 ± 0.0033 | 0.0725 ± 0.015 | 0.08 ± 0.012 | 0.0927 ± 0.0084
15 | WLSWATRRIVLG | 0.47 ± 0.031 | 0.552 ± 0.037 | 0.611 ± 0.019 | 0.57 ± 0.02 | 0.605 ± 0.018 | 0.384 ± 0.008 | 0.401 ± 0.013 | 0.527 ± 0.012
16 | WLWYSPIAFTAL | 0.179 ± 0.015 | 0.632 ± 0.014 | 0.764 ± 0.041 | 0.64 ± 0.016 | 0.778 ± 0.02 | 0.11 ± 0.019 | 0.107 ± 0.0089 | 0.163 ± 0.0073
17 | WPRSFSIILLSR | 0.285 ± 0.027 | 0.322 ± 0.036 | 0.3371 ± 0.002 | 0.265 ± 0.029 | 0.4355 ± 0.0031 | 0.361 ± 0.015 | 0.288 ± 0.025 | 0.419 ± 0.0043
18 | WRMRCGLIIGLV | 0.183 ± 0.032 | 0.0313 ± 0.0029 | 0.0521 ± 0.023 | 0.155 ± 0.028 | 0.164 ± 0.0025 | 0.1 ± 0.025 | 0.134 ± 0.026 | 0.125 ± 0.018
19 | WRVFRPSLRLFA | 0.393 ± 0.051 | 0.531 ± 0.04 | 0.61 ± 0.018 | 0.467 ± 0.017 | 0.598 ± 0.012 | 0.287 ± 0.0051 | 0.33 ± 0.021 | 0.507 ± 0.036
20 | WVFMVILLVFLV | 0.3041 ± 0.0026 | 0.216 ± 0.0073 | 0.268 ± 0.017 | 0.257 ± 0.021 | 0.33 ± 0.038 | 0.28 ± 0.0053 | 0.228 ± 0.022 | 0.315 ± 0.014
